Data published in the RNAGym collection of RNA variant scans (doi:10.7554/elife.90254).

B1: LINE1-full (parent)
chain: UACGUAGGUGGUUUUCCCCUGAUAGUGCUAAGGGGGCCUGGAAGUUUGGACUGGGCAGAGCUCAACACAGCGUGGCAAAGUGGCUGUGGCUAGACUGCCUCUCUGGAUUCCUCGUCACUCAGCAGGGCAUCUCUGAGAGAAAUGCC

Variants of: B1
Assay: self-cleavage, relative activity (ratio to wild type); higher = more cleavage; in vitro, sequencing; the parent is a self-cleaving ribozyme

Variant | self-cleavage
UACGUAGGUGGUUUUCCCCUGAUAGUGCUAAGGGGGCCUGGAAGUUAGGACUGGGCAGAGCUCAACACAGCGUGGCAAAGUGGCUGAGGCUAGACUGCCUCUCUGGAUUCCUCGUCACUCAGCAGGGCAUCUCUGAGAGAAAUGCC | 0.11
UACGUAGGUGGUUUUCCCCUGAUAGUGCUAAGGGGGCCUGGAUGUUUGGACUCGGCAGAGCUCAACACAGCGUGGCAAAGUGGCUGUGGCUAGACUGCCUCUCUGGAUUCCUCGUCACUCAGCAGGGCAUCUCUGAGAGAAAUGCC | 1.03
UACGUAGGUGGUUUUCCCCUGAUAGUGCUAAGGGGGCCUGGAAGUUAGGACUGGGCAGAGCUCAACACAGCGUGGCAAAGUGGCUGUGGCUAGACUGCCUCUCUGGAUUCCUCGUCACUCAGUAGGGCAUCUCUGAGAGAAAUGCC | 0.7
UACGUAGGUGGUUUUCCCCUGAUAGUGCUAAGGGGGCCUGGAAGUUUGGACUGGGCAGAGCCCAACACAGCGUGGCAAAGUGGCUGUGGCUAGACUGCCUCUCUGGAUUCCUCGACACUCAGCAGGGCAUCUCUGAGAGAAAUGCC | 0.04
UACGUAGGUGGUUUUCCCCUGAUAGUGCUAAGGGGGCCUGGAAGUUUGGACUGGGCAGAGCUCAACACAGCGUGGCAAAGUGGCUGUGGCUAGACUGCCUCUCCGGAUUCCUCGUCACUCAGCAGGGCGUCUCUGAGAGAAAUGCC | 2.04
UACGUAGGUGGUUUUCCCCUGAUAGUGCUAAGGGGGCCUGGAAGUUUGGACUGGGCAGAGCUCAACACAGCGUGGCAAAGUGGCUGUGGCUAGACUGCCUCUCAGGGUUCCUCGUCACUCAGCAGGGCAUCUCUGAGAGAAAUGCC | 0.9
UACGUAGGUGGUAUUCCCCUGAUAGUGCUAAGGGGGCCUGGAAGUUUGGAAUGGGCAGAGCUCAACACAGCGUGGCAAAGUGGCUGUGGCUAGACUGCCUCUCUGGAUUCCUCGUCACUCAGCAGGGCAUCUCUGAGAGAAAUGCC | 0.75
UACGUAGGUGGUUUUCCCCUGAUAGUGCUAAGGGGGCCUGGAAGUUUGGACUGGGCAGAGCCCAACACAGCGUGGCAAAGUGGCUGUGGCGAGACUGCCUCUCUGGAUUCCUCGUCACUCAGCAGGGCAUCUCUGAGAGAAAUGCC | 0
UACGUAGGUGGUUUUCCCCUGAUAGUGCUAAGGGGGCCUGGAAGUUUGGACUGGGCAGAGCUCAACACGGCGUGGCUAAGUGGCUGUGGCUAGACUGCCUCUCUGGAUUCCUCGUCACUCAGCAGGGCAUCUCUGAGAGAAAUGCC | 0.58
UACGUAGGUGGUUUUCCCCUGAUAGUGCUAAGGGGGCCUGGAAGUUUGGACUGGGCAGAGCUCGACACUGCGUGGCAAAGUGGCUGUGGCUAGACUGCCUCUCUGGAUUCCUCGUCACUCAGCAGGGCAUCUCUGAGAGAAAUGCC | 0.08
UACGUAGGUGGUUUUCCCCUGAUAGUGCUAAGGGGGCCUGGAAGUUUGGACUGGGCAGAGCUCGACACAGCGCGGCAAAGUGGCUGUGGCUAGACUGCCUCUCUGGAUUCCUCGUCACUCAGCAGGGCAUCUCUGAGAGAAAUGCC | 0.17
UACGUAGGUGGUUUUCCCCUGUUAGUGCUAAGGGGGCCUGGAAGUUUGGACUGGGCAGAGCUCAACACAGCGUGGCAAAGUGGCUGUGGCUAGACUGCCUCUCUGGAUUCCUCGUCACUCAGCAGGGCAUCUCUGAGAGAGAUGCC | 1.29
UACGUAGGUGGUUUUCCCCUGAUAGUGCCAAGGGGGCCUGGAAGUUUGGACUGGGCAGAGCUCAACACAGCGUGGCAAAGUGGCUGCGGCUAGACUGCCUCUCUGGAUUCCUCGUCACUCAGCAGGGCAUCUCUGAGAGAAAUGCC | 0.41
UAUGUAGGUGGUUUUCCCCUGAUAGUGCUAAGGGGGCCUGGAAGUUUGGACGGGGCAGAGCUCAACACAGCGUGGCAAAGUGGCUGUGGCUAGACUGCCUCUCUGGAUUCCUCGUCACUCAGCAGGGCAUCUCUGAGAGAAAUGCC | 1.17
UACGUAGGUGGUUUUCCCCUGAUAGUGCUAAGGAGGCCUGGAAGUUUGGACUGGGCAGAGCUCAACACAGCGUGGCAAAGUGGCUGUGGCUAGAAUGCCUCUCUGGAUUCCUCGUCACUCAGCAGGGCAUCUCUGAGAGAAAUGCC | 0.07
UACGUAGGUGGUUUUCCCCUGAUAGUGCUAAGGGGGCCUGGAAGUUUGGACUGGGCAGAGCUCAACACAGCGUGGCAAAGUGGCUGUGGCUAGACUGCCUUUCUGGAUUCCUCAUCACUCAGCAGGGCAUCUCUGAGAGAAAUGCC | 1.37
UACGUGGGUGGUUUUCCCCUGAUAGUGCUAAGGGGGCCUGGAAGUUUGGACUGGGCAGAGCUCAACACAGCGUGGCAAAGUGGCUGUGGCUAGACUGCCUCUCUGGGUUCCUCGUCACUCAGCAGGGCAUCUCUGAGAGAAAUGCC | 0.74
UACGUAGGUGGUUUUCCCCUGAUAGUGCUAAGGGGGCCUGGAAGUUUGGACUGGGCAGAGCUCAGCCCAGCGUGGCAAAGUGGCUGUGGCUAGACUGCCUCUCUGGAUUCCUCGUCACUCAGCAGGGCAUCUCUGAGAGAAAUGCC | 0.14
UACGUAGGUGGUUUUCCCCUGAUAGUGCUAAGGGGGCCUGGAAGUUCGGACUGGGCAGAGCUCAACACAGCGUGGCAAAGUGGCUGUGGCUAGACUGCCUCUCUGGAUUCCUCGUCACUCAGCAGGGCAUUUCUGAGAGAAAUGCC | 1.91
UACGUAGGUGGUUUUCCCCUGAUAGUGCUAAGGGGGCCUGGAAGUUUGGACUGGGCAGAGCUCAACACAGCGUGGCAAAGUGGCUGUGGCUAAACUGCCUCUCUGGAUUCCUCGUCACUCAGCAGGGCAUCCCUGAGAGAAAUGCC | 0.03

Variant | self-cleavage
UACGUAGGUGGUUUUCCCCUGAUAGUGCUAAGGGGGCCUGGAAGUUUGGACUGGGCAGAGCUCAACACAGCGUGGCAAAGUGGCUGUGGCUAGACUGCCACUCUGGAUUCCUCGUCACUCAGCAGGGCAUCUCUGAGAGUAAUGCC | 0.57
UACGUAGGUGGUUUUCCCCUGAUAGUGCUAAGGGGGCCUGGAAGUUUGGACUGGGCAGAGCUCAACACAGCAUGGCAAAGUGGCUGUGGCUAGACUGCCUCUCUGGAUUCCUCGUCACUCAGCAGGGCAUCUCUGAGAGAAAAGCC | 1.85
UACGUAGGUGGUUUUCCCCUGAUAGUGCUAAGGGGGCCUGGAAGUUUGGACUGGGCAGAGCUCAACACAGCGUGCCAAAGUGGCUGUGGCUAGACUGCCUCUCUGGACUCCUCGUCACUCAGCAGGGCAUCUCUGAGAGAAAUGCC | 0.77
UACGUAGGUGGGUUUCCCCUGAUAGUGCUAAGGGGGCCUGGAAGUUUGGACUGGGCAGAGCUCAACACAGCGUGGCAAAGUGGCUGUGGCUAGACUGCCCCUCUGGAUUCCUCGUCACUCAGCAGGGCAUCUCUGAGAGAAAUGCC | 1.33
UACGUAGGUGGUUUUCCCCUGAUAGCGCUAAGGGGGCCUGGAAGUUUGGACUGGGCAGAGCUCAUCACAGCGUGGCAAAGUGGCUGUGGCUAGACUGCCUCUCUGGAUUCCUCGUCACUCAGCAGGGCAUCUCUGAGAGAAAUGCC | 0.14
UACGUAGGUGGUUUUCCCCUGAUAGUGCUAAGGGGGCCUGGAAGUUUGGACUGGGCAGAGCUCAACACAUCGUGGCAAAGUGGCUGUGGCUAGACUGCCUCUCUGGAUUCCUCGUCACUCAGCAGGGCAUCUCUGAGAGAAAUGCC | 0.05
UACGUAGGUGGUUUUCCCCUGAUAGUGCUAAGGGGGCCUGGAAGUUUGGACUGGGCAGUGCUCAACACAGCGUGGCAAAGUGGCUGUGGCUAGACUGCCUCUCUGGAUUCCUCGUCUCUCAGCAGGGCAUCUCUGAGAGAAAUGCC | 0.8
UACGUAGGUGGUUUUCCCCUGAUAGUGCUAAGGGGGCCUGGAAGGUUGGACUGGGCGGAGCUCAACACAGCGUGGCAAAGUGGCUGUGGCUAGACUGCCUCUCUGGAUUCCUCGUCACUCAGCAGGGCAUCUCUGAGAGAAAUGCC | 0.9
UACGUAGGUGGUUUUCCCCUGAUAGUGCUAAGGGGGCCUGGAAGUUUGGGCUGGGCAGAACUCAACACAGCGUGGCAAAGUGGCUGUGGCUAGACUGCCUCUCUGGAUUCCUCGUCACUCAGCAGGGCAUCUCUGAGAGAAAUGCC | 0.04
UACGUAGGUGGUUUUCCCCUGAUAGUGCUAAGGGAGCCUGGAAGUUUGGACUGGGCAGAGCUCAACACAGCGUGGCAAAGUGGCUGUGGCUAGACUGCCUCUCUGGAUUCCUCGUCACUCAGCAGGGCAUCUCGGAGAGAAAUGCC | 0.47
UACGUAGGUGGUUUUCCCCUGAUAGUGCUAAGGGGGCCUGGAAGUUUGGACGGGGCAGAGCUCAACACAGCGUGGCAAAGUGGCUGUGGCUAGACUGCCUCUCUGGAUUCCUCGUCACUCAGCAGGGCAUCUCUGAGAGAAGUGCC | 0.51
UACGUAGGUGGUGUUCCCCUGAUAGUGCUAAGGGGGCCUGGAAGUUUGGACUGGGCAGAGCUCAACACAGCGUGGCAAGGUGGCUGUGGCUAGACUGCCUCUCUGGAUUCCUCGUCACUCAGCAGGGCAUCUCUGAGAGAAAUGCC | 2.7
UACGUAGGUGGUUUUCCCCUGUUAGUGCUAAGGGGGCCUGGAAGUUUGGACUGGGCAGAGCUCAACACAGCGUGGCAAAGUGGCUGUGGCUAGACUGCCUCUCUGGAUUCCUCAUCACUCAGCAGGGCAUCUCUGAGAGAAAUGCC | 1.44
UACGUAGGUGGUUUUCCCCUGAUAGUGCUAAGGGGGCCUGGAAGUUUGGACUGGGCAGAGCUCAACACGGCGUGGCAAAGUGGGUGUGGCUAGACUGCCUCUCUGGAUUCCUCGUCACUCAGCAGGGCAUCUCUGAGAGAAAUGCC | 0.06
UACGUAGGUGGUUUUCCCCUGAUAGUGCUAAGGGGGCCUGGAAGUUUGGACUGGGCAGAGCUCAACACAGCGUGGCAAACUGGCUGUGGCUAGACUGUCUCUCUGGAUUCCUCGUCACUCAGCAGGGCAUCUCUGAGAGAAAUGCC | 0.26
UACGAAGGUGGUUUUCCCCUGAUAGUGCUAAGGGGGCCUGGAAGUUUGGACUGGGCAGAGCUCAACACAGCGCGGCAAAGUGGCUGUGGCUAGACUGCCUCUCUGGAUUCCUCGUCACUCAGCAGGGCAUCUCUGAGAGAAAUGCC | 1.41
UACGUAGGUGGUUUUCCCCUGAUAGUGCUAAGGGGGCCAGGAAGUUUGGACUGGGCAGAGCUCAACACAGCGUGGCAUAGUGGCUGUGGCUAGACUGCCUCUCUGGAUUCCUCGUCACUCAGCAGGGCAUCUCUGAGAGAAAUGCC | 1.98
UACGUAGGUGGUUUUCCCCUGAUAGUGCUAAGGGGGCCUGGAAGUUUGGACUGGGCAGAGCUCAACACAGCGUGGCAAAGUGGCUGUGGCCAGACUGCCUCUCUGGAUUCCUCGUCACUCAGCAGGGCAUCUCUGAGAGAAAUGCU | 0.53
UGCGUAGGUGGUUUUCCCCUGAUAGUGCGAAGGGGGCCUGGAAGUUUGGACUGGGCAGAGCUCAACACAGCGUGGCAAAGUGGCUGUGGCUAGACUGCCUCUCUGGAUUCCUCGUCACUCAGCAGGGCAUCUCUGAGAGAAAUGCC | 1.09
